{
  "source": "paper PMC5472690",
  "about": "“3-Hydroxybenzoate 6-Hydroxylase from Rhodococcus jostii RHA1 Contains a Phosphatidylinositol Cofactor” (Frontiers in Microbiology, 2017)",
  "molecules": {"B1": {"name": "Rj3HB6H (Rhodococcus jostii RHA1) (protein)", "chain": "SNLQDARIIIAGGGIGGAANALALAQKGANVTLFERASEFGEVGAGLQVGPHGARILDSWGVLDDVLSRAFLPKNIVFRDAITAEVLTKIDLGSEFRGRYGGPYFVTHRSDLHATLVDAARAAGAELHTGVTVTDVITEGDKAIVSTDDGRTHEADIALGMDGLKSRLREKISGDEPVSSGYAAYRGTTPYRDVELDEDIEDVVGYIGPRCHFIQYPLRGGEMLNQVAVFESPGFKNGIENWGGPEELEQAYAHCHENVRRGIDYLWKDRWWPMYDREPIENWVDGRMILLGDAAHPPLQYLASGAVMAIEDAKCLADYAAEDFSTGGNSAWPQILKEVNTERAPRCNRILTTGRMWGELWHLDGTARIARNELFRTRDTSSYKYTDWLWGYSSDRAS"}},
  "key": {"Rj3HB6H": {"target": "T1, Rj3HB6H (Rhodococcus jostii, UniProt Q0SFK6)", "T1 construct": "gene RHA1_ro01869; full length, C-terminal His6 tag, produced in R. jostii RHA1#2; N-terminal Met lacking; 46,761 Da subunit; homodimer", "experiment": "X-ray crystal structure, […] Å", "assay_type": "binding", "conditions": "pH 8.5 precipitant; co-bound phospholipid"}, "O=C(O)c1cccc(O)c1": {"system": "O=C(O)c1cccc(O)c1", "experiment": "purified protein", "conditions": "fixed NADH, 50 mM Tris-SO4, pH 8.0, 25°C"}, "purified protein": {"substrate": "NC(=O)C1=CN([C@@H]2O[C@H](COP(=O)(O)OP(=O)(O)OC[C@H]3O[C@@H](n4cnc5c(N)ncnc54)[C@H](O)[C@@H]3O)[C@@H](O)[C@H]2O)C=CC1", "experiment": "purified protein", "conditions": "fixed 3-hydroxybenzoate, 50 mM Tris-SO4, pH 8.0, 25°C"}},
  "data": [
    {"molecule": "Cc1cc2nc3c(=O)[nH]c(=O)nc-3n(C[C@H](O)[C@H](O)[C@H](O)COP(=O)(O)OP(=O)(O)OC[C@H]3O[C@@H](n4cnc5c(N)ncnc54)[C@H](O)[C@@H]3O)c2cc1C", "note": "[FAD]", "values": [
      {"measurement": "X-ray crystal structure, 2.3 Å", "setting": "Rj3HB6H", "value": "The isoalloxazine moiety of FAD was refined with full occupancy"}
    ]},
    {"molecule": "Rj3HB6H (Rhodococcus jostii RHA1)", "values": [
      {"measurement": "Km", "setting": "O=C(O)c1cccc(O)c1", "value": "35 ± 3", "unit": "µM"},
      {"measurement": "kcat", "setting": "O=C(O)c1cccc(O)c1", "value": "20 ± 1", "unit": "s⁻¹"}
    ]},
    {"molecule": "B1", "values": [
      {"measurement": "Km", "setting": "purified protein", "value": "68 ± 5", "unit": "µM"},
      {"measurement": "kcat", "setting": "purified protein", "value": "20 ± 1", "unit": "s⁻¹"}
    ]}
  ]
}
